This note sets out measurements from doi:10.1101/2020.08.03.234229 (bioRxiv, 2020).

The target in this experiment is T1, TSEN15 tryptic fragment (residues 23 to 170) (human, UniProt Q8WW01 23-170).
T1 sequence (looked up): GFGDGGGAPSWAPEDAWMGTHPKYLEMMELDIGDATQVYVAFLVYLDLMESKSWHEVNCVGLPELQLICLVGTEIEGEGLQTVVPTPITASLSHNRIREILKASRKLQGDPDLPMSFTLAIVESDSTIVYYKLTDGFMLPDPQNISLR
Nature of the experiment: SEC.

B1: TSEN34 tryptic fragment (residues 208 to 310) (domain or fragment, human, UniProt Q9BSV6 208-310, looked up)
chain: DWPHAGRPAHELRYSIYRDLWERGFFLSAAGKFGGDFLVYPGDPLRFHAHYIAQCWAPEDTIPLQDLVAAGRLGTSVRKTLLLCSPQPDGKVVYTSLQWASLQ
For B1, the binding result is recorded as “binds”.
